Literature values as cited in publication PMC8226686.

Biological target: insulin receptor (Homo sapiens) (UniProt P06213)
Sequence of UniProt P06213 (P06213 763-1382): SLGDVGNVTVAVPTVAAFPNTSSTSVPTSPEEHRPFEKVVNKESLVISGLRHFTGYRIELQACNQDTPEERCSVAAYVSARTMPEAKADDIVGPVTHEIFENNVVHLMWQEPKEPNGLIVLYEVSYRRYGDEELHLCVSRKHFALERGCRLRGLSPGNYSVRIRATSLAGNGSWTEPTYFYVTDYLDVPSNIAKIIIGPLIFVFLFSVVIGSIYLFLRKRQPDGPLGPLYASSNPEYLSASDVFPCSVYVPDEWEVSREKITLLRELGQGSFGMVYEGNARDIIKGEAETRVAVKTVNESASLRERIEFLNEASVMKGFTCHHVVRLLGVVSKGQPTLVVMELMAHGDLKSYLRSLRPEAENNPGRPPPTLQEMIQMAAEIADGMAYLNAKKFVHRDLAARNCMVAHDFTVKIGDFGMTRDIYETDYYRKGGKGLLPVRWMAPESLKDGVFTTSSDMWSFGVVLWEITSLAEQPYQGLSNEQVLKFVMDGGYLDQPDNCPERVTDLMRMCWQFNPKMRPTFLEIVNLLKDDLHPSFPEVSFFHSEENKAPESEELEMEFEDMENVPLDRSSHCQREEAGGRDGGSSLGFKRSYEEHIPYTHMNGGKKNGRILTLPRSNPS

Sequence of insulin (P01308 90-110): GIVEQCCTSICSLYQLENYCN

insulin (from UniProt P01308)
Kd: 2.2 nM
